Residue numbers refer to the chain shown, from its start.
T1: recombinant Human BCMA Fc Chimera (produced in-house via transient expression in HEK293-6E cells) (human, UniProt Q02223 1-54)
T1 construct: not shown: Fc part of the chimera
T1 sequence (looked up): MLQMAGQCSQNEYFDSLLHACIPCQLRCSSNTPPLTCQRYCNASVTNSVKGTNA

B1: CDR1-048 (other)
heavy: EVQLVESGGGSVQPGGSLRLSCAASGFTFSTYAMNWVRQAPGKGLEWVGRIRSKANNYATYYADSVKGRFTISRDDSKNTLYLQMNSLRAEDTATYYCVRHGNFGDSYVSWFAYWGQGTTVTVSSASTKGPSVFPLAPSSKSTSGGTAALGCLVKDYFPEPVTVSWNSGALTSGVHTFPAVLQSSGLYSLSSVVTVPSSSLGTQTYICNVNHKPSNTKVDKRVEPKSCGGGGSDIVLTQSPASLAMSLGKRATISCRASESVSVIGAHLIHWYQQKPGQPPKLLIYLASNLETGVPARFSGSGSGTDFTLTIDPVEEDDVAIYSCLQSRIFPRTFGGGTKLEIKGGGGSGGGGSGGGGSGGGGSQIQLVQSGPELKKPGETVKISCKASGYTFTDYSINWVKRAPGKGLKWMGWINTETREPAYAYDFRGRFAFSLETSASTAYLQINNLKYEDTATYFCALDYSYAMDYWGQGTSVTVSS
light: AVVTQEPSLTVSPGGTVTLTCGSSTGAVTTSNYANWVQQKPGKSPRGLIGGTNKRAPGVPARFSGSLLGGKAALTISGAQPEDEADYYCALWYSNHWVFGGGTKLTVLGTVAAPSVFIFPPSDEQLKSGTASVVCLLNNFYPREAKVQWKVDNALQSGNSQESVTEQDSKDSTYSLSSTLTLSKADYEKHKVYACEVTHQGLSSPVTKSFNRGECGGGGSEIVMTQSPSTLSASVGDRVIITCQASEDIYSLLAWYQQKPGKAPKLLIYDASDLASGVPSRFSGSGSGAEFTLTISSLQPDDSATYYCQGNYGSSSSSSYGAVFGQGTKLTVLGGGGGSGGGGSGGGGSGGGGSEVQLVESGGGSVQPGGSLRLSCTVSGIDLSSYTMGWVRQAPGKGLEWVGIISSGGRTYYASWAKGRFTISRDTSKNTVYLQMNSLRAEDTATYYCARGRYTGYPYYFALWGQGTTVTVSS
notes: Trispecific Fab-scFv: anti-CD3 Fab, anti-BCMA scFv on the Fd, anti-PD-L1 scFv on the light chain
B2: CDR1-055 (other)
heavy: QIQLVQSGPELKKPGETVKISCKASGYTFTDYSINWVKRAPGKGLKWMGWINTETREPAYAYDFRGRFAFSLETSASTAYLQINNLKYEDTATYFCALDYSYAMDYWGQGTSVTVSSASTKGPSVFPLAPSSKSTSGGTAALGCLVKDYFPEPVTVSWNSGALTSGVHTFPAVLQSSGLYSLSSVVTVPSSSLGTQTYICNVNHKPSNTKVDKRVEPKSCGGGGSQVQLVESGGGLVQPGGSLRLSCAASGKMSSRRCMAWFRQAPGKGLERVAKLLTTSGSTYLADSVKGRFTISRDNSKNTVYLQMNSLRAEDTAVYYCAADSFEDPTCTLVTSSGAFQYWGQGTLVTVSS
light: DIVLTQSPASLAMSLGKRATISCRASESVSVIGAHLIHWYQQKPGQPPKLLIYLASNLETGVPARFSGSGSGTDFTLTIDPVEEDDVAIYSCLQSRIFPRTFGGGTKLEIKRTVAAPSVFIFPPSDEQLKSGTASVVCLLNNFYPREAKVQWKVDNALQSGNSQESVTEQDSKDSTYSLSSTLTLSKADYEKHKVYACEVTHQGLSSPVTKSFNRGECGGGGSAVVTQEPSLTVSPGGTVTLTCGSSTGAVTTSNYANWVQQKPGKSPRGLIGGTNKRAPGVPARFSGSLLGGKAALTISGAQPEDEADYYCALWYSNHWVFGGGTKLTVLGGGGGSGGGGSGGGGSGGGGSEVQLVESGGGSVQPGGSLRLSCAASGFTFSTYAMNWVRQAPGKGLEWVGRIRSKANNYATYYADSVKGRFTISRDDSKNTLYLQMNSLRAEDTATYYCVRHGNFGDSYVSWFAYWGQGTTVTVSS
notes: Trispecific: anti-BCMA Fab, anti-PD-L1 sdAb on the Fd, anti-CD3 scFv on the light chain
B3: CDR1-049 (other)
heavy: EVQLVESGGGSVQPGGSLRLSCTVSGIDLSSYTMGWVRQAPGKGLEWVGIISSGGRTYYASWAKGRFTISRDTSKNTVYLQMNSLRAEDTATYYCARGRYTGYPYYFALWGQGTTVTVSSASTKGPSVFPLAPSSKSTSGGTAALGCLVKDYFPEPVTVSWNSGALTSGVHTFPAVLQSSGLYSLSSVVTVPSSSLGTQTYICNVNHKPSNTKVDKRVEPKSCGGGGSAVVTQEPSLTVSPGGTVTLTCGSSTGAVTTSNYANWVQQKPGKSPRGLIGGTNKRAPGVPARFSGSLLGGKAALTISGAQPEDEADYYCALWYSNHWVFGGGTKLTVLGGGGGSGGGGSGGGGSGGGGSEVQLVESGGGSVQPGGSLRLSCAASGFTFSTYAMNWVRQAPGKGLEWVGRIRSKANNYATYYADSVKGRFTISRDDSKNTLYLQMNSLRAEDTATYYCVRHGNFGDSYVSWFAYWGQGTTVTVSS
light: EIVMTQSPSTLSASVGDRVIITCQASEDIYSLLAWYQQKPGKAPKLLIYDASDLASGVPSRFSGSGSGAEFTLTISSLQPDDSATYYCQGNYGSSSSSSYGAVFGQGTKLTVLGTVAAPSVFIFPPSDEQLKSGTASVVCLLNNFYPREAKVQWKVDNALQSGNSQESVTEQDSKDSTYSLSSTLTLSKADYEKHKVYACEVTHQGLSSPVTKSFNRGECGGGGSDIVLTQSPASLAMSLGKRATISCRASESVSVIGAHLIHWYQQKPGQPPKLLIYLASNLETGVPARFSGSGSGTDFTLTIDPVEEDDVAIYSCLQSRIFPRTFGGGTKLEIKGGGGSGGGGSGGGGSGGGGSQIQLVQSGPELKKPGETVKISCKASGYTFTDYSINWVKRAPGKGLKWMGWINTETREPAYAYDFRGRFAFSLETSASTAYLQINNLKYEDTATYFCALDYSYAMDYWGQGTSVTVSS
notes: Trispecific Fab-scFv: anti-PD-L1 Fab, anti-CD3 scFv on the Fd, anti-BCMA scFv on the light chain
B4: CDR1-047 (other)
heavy: QIQLVQSGPELKKPGETVKISCKASGYTFTDYSINWVKRAPGKGLKWMGWINTETREPAYAYDFRGRFAFSLETSASTAYLQINNLKYEDTATYFCALDYSYAMDYWGQGTSVTVSSASTKGPSVFPLAPSSKSTSGGTAALGCLVKDYFPEPVTVSWNSGALTSGVHTFPAVLQSSGLYSLSSVVTVPSSSLGTQTYICNVNHKPSNTKVDKRVEPKSCGGGGSAVVTQEPSLTVSPGGTVTLTCGSSTGAVTTSNYANWVQQKPGKSPRGLIGGTNKRAPGVPARFSGSLLGGKAALTISGAQPEDEADYYCALWYSNHWVFGGGTKLTVLGGGGGSGGGGSGGGGSGGGGSEVQLVESGGGSVQPGGSLRLSCAASGFTFSTYAMNWVRQAPGKGLEWVGRIRSKANNYATYYADSVKGRFTISRDDSKNTLYLQMNSLRAEDTATYYCVRHGNFGDSYVSWFAYWGQGTTVTVSS
light: DIVLTQSPASLAMSLGKRATISCRASESVSVIGAHLIHWYQQKPGQPPKLLIYLASNLETGVPARFSGSGSGTDFTLTIDPVEEDDVAIYSCLQSRIFPRTFGGGTKLEIKRTVAAPSVFIFPPSDEQLKSGTASVVCLLNNFYPREAKVQWKVDNALQSGNSQESVTEQDSKDSTYSLSSTLTLSKADYEKHKVYACEVTHQGLSSPVTKSFNRGECGGGGSEIVMTQSPSTLSASVGDRVIITCQASEDIYSLLAWYQQKPGKAPKLLIYDASDLASGVPSRFSGSGSGAEFTLTISSLQPDDSATYYCQGNYGSSSSSSYGAVFGQGTKLTVLGGGGGSGGGGSGGGGSGGGGSEVQLVESGGGSVQPGGSLRLSCTVSGIDLSSYTMGWVRQAPGKGLEWVGIISSGGRTYYASWAKGRFTISRDTSKNTVYLQMNSLRAEDTATYYCARGRYTGYPYYFALWGQGTTVTVSS
notes: Trispecific Fab-scFv: anti-BCMA Fab, anti-CD3 scFv on the Fd, anti-PD-L1 scFv on the light chain
B5: CDR1-010 (other)
heavy: QIQLVQSGPELKKPGETVKISCKASGYTFTDYSINWVKRAPGKGLKWMGWINTETREPAYAYDFRGRFAFSLETSASTAYLQINNLKYEDTATYFCALDYSYAMDYWGQGTSVTVSSASTKGPSVFPLAPSSKSTSGGTAALGCLVKDYFPEPVTVSWNSGALTSGVHTFPAVLQSSGLYSLSSVVTVPSSSLGTQTYICNVNHKPSNTKVDKRVEPKSCGGGGSEIVMTQSPSTLSASVGDRVIITCQASEAIYSLLAWYQQKPGKAPKLLIYDASDLASGVPSRFSGSGSGAEFTLTISSLQPDDSATYYCQGNYGSSSSSSYGAVFGQGTKLTVLGGGGGSGGGGSGGGGSGGGGSEVQLVESGGGSVQPGGSLRLSCTVSGIDLSSYTMGWVRQAPGKGLEWVGIISSGGRTYYASWAKGRFTISRDTSKNTVYLQMNSLRAEDTATYYCARGRYTGYPYYFALWGQGTTVTVSS
light: B2 light
B6: CDR1-018 (other)
heavy: B5 heavy with A253D, Y459A
light: B2 light
B7: CDR1-012 (other)
heavy: B5 heavy with A253D, D275A
light: B2 light
B8: CDR1-016 (other)
heavy: B5 heavy with A253D, R415A
light: B2 light
B9: CDR1-013 (other)
heavy: B5 heavy with A253D, N316A
light: B2 light
B10: CDR1-014 (other)
heavy: B5 heavy with A253D, T392A
light: B2 light
B11: CDR1-015 (other)
heavy: B5 heavy with A253D, G413A
light: B2 light

target: T2, recombinant human CD3 epsilon His-tag protein (Novoprotein, Cat. No. C578) (human, UniProt P07766 23-126); test: dual-binding ELISA: BCMA Fc coated, then CD3 epsilon His, anti-His detection
T2 construct: Bought protein; not shown: His-tag
T2 sequence (P07766 23-126): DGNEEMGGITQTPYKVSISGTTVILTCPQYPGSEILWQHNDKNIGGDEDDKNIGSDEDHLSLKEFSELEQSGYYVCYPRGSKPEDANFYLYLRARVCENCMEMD

Binder | binding result
B1 | binds
B2 | binds
B3 | binds
B4 | binds

target: T3, extracellular domain of human PD-L1 (Example 8) (human, UniProt Q9NZQ7 19-238); test: ELISA on coated extracellular domain of human PD-L1, serial dilutions
T3 construct: extracellular domain; also called PD-L1 antigen; immobilized PD-L1
T3 sequence (Q9NZQ7 19-238): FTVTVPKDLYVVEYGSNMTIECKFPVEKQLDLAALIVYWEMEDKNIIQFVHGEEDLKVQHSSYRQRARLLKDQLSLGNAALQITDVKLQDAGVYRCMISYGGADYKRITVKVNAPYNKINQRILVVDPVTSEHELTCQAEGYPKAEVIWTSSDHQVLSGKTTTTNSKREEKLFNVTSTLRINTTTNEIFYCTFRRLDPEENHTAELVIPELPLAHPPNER
Protocol: Serial dilutions of the antibodies to final concentrations ranging from 0.5 ng/mL to 50 μg/ml were tested by ELISA for binding to the extracellular domain of human PD-L1 coated on a 96 well plate.

Binder | binding result
B5 | binds
B6 | binds
B7 | binds
B8 | binds
B9 | binds
B10 | binds
B11 | binds

target: T4, recombinant human PD-L1 His-tag protein (expressed after transient transfection in HEK293-6E) (human, UniProt Q9NZQ7 19-238, limits assumed); test: dual-binding ELISA: BCMA Fc coated, then PD-L1 His, anti-His detection
T4 construct: not shown: His-tag
T4 sequence (Q9NZQ7 19-238 limits assumed): as the sequence (Q9NZQ7 19-238) above

Binder | binding result
B1 | binds
B2 | binds
B3 | binds
B4 | binds

target: T1, recombinant Human BCMA Fc Chimera …; test: dual-binding ELISA: BCMA Fc coated, then CD3 epsilon His or PD-L1 His, anti-His detection
Protocol: Trispecific antibody molecules were tested for their ability to bind the different targets using a Dual-Binding ELISA. […] Simultaneous binding to antigen pairs was detected via an anti-His antibody (Abcam, Cat. No. ab1187).

Binder | binding result
B1 | binds
B2 | binds
B3 | binds
B4 | binds

Reference: patent US20200024358A1 (published 2020)
